target: TNF-alpha (Homo sapiens, UniProt P01375 P01375:77-233); experiment: filter; class I; details: tags: Genzyme or R&D Systems; chain copies: 3 inferred
Sequence (P01375 77-233, one chain of several): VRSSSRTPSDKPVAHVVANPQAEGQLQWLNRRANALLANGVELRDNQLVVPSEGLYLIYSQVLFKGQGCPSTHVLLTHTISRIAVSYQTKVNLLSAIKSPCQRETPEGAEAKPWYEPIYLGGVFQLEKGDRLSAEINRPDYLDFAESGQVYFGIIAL

Binder	Kd [nM]
TNF 19C (ssRNA) RNA: GGGAGCUCAGAAUAAACGCUCAAUGUCGAUCGUGUCAAGGUCCGUCCUACUUCUUCGACAUGAGGCCCGGAUCCGGC	83
TNF 9C (ssRNA) RNA: GGGAGCUCAGAAUAAACGCUCAAAUGGUGGAGGCCAUCUCAAACCCACGACACUUCGACAUGAGGCCCGGAUCCGGC	120
TNF 15C (ssRNA) RNA: GGGAGCUCAGAAUAAACGCUCAACUAGUUCAACCGUCCCUUCUAACAACCGUCUUCGACAUGAGGCCCGGAUCCGGC	124
TNF 3A (ssRNA) RNA: GGGAGCUCAGAAUAAACGCUCAAGAUCGACGCAUCGAGUCGCCUCAUCGCUCCUUCGACAUGAGGCCCGGAUCCGGC	135
TNF 11C (ssRNA) RNA: GGGAGCUCAGAAUAAACGCUCAAUGAGGCGCGCCACAGGAUGGCCCUCAACCCUUCGACAUGAGGCCCGGAUCCGGC	140

target: IL-4 (Homo sapiens, UniProt P05112 P05112:25-153); experiment: filter; group 1 stated to bind IL-4; details: tags: R&D Systems
Sequence (P05112 25-153, one chain of several): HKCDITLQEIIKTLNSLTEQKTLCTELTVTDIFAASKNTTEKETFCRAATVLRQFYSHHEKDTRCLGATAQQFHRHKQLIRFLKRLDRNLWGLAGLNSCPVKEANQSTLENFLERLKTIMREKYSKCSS

Binder	binding result
IL-4 2'NH2-12 (ssRNA, 2'-NH2 C and U) RNA: GGGAGACAAGAAUAAACGCUCAAGGACUGGUGAGCCACGUAUACGGUCUUAGGGGCUUGGGCGUUCGACAGGAGGCUCACAACAGGC	binds
IL-4 2'NH2-27 (ssRNA, 2'-NH2 C and U) RNA: GGGAGACAAGAAUAAACGCUCAACCUUGUGGGGAGCCACGUAUACGGCCAUAGCAUACCGCAAUUCGACAGGAGGCUCACAACAGGC	binds
IL-4 2'NH2-B31 (ssRNA, 2'-NH2 C and U) RNA: GGGAGACAAGAAUAAACGCUCAAGAGCUGGUGAGCCACGUAUACGGUCUUAGGGGCUUGGGCGUUCGACAGGAGGCUCACAACAGGC	binds
IL-4 2'NH2-17 (ssRNA, 2'-NH2 C and U) RNA: GGGAGACAAGAAUAAACGCUCAAGUAUUGGGGAGCCACAUUACAACGGCACAGGCAACCAGGGUUCGACAGGAGGCUCACAACAGGC	binds
IL-4 2'NH2-31 (ssRNA, 2'-NH2 C and U) RNA: GGGAGACAAGAAUAAACGCUCAAGUGCUGGUGAGCCACGCAUACGGUCUUAGGGGCUUGAGCGUUCGACAGGAGGCUCACAACAGGC	binds
IL-4 2'NH2-B14 (ssRNA, 2'-NH2 C and U) RNA: GGGAGACAAGAAUAAACGCUCAAUAAAUGGAGAGCCACACUAACGGCGUAUGAAAACACUCAUUCGACAGGAGGCUCACAACAGGC	binds
IL-4 2'NH2-B16 (ssRNA, 2'-NH2 C and U) RNA: GGGAGACAAGAAUAAACGCUCAAUCACAAGCACCCUUGGGGAGCCACAUUAACGGCCUAGGCUUCGACAGGAGGCUCACAACAGGC	binds
IL-4 2'NH2-B26 (ssRNA, 2'-NH2 C and U) RNA: GGGAGACAAGAAUAAACGCUCAAAUGGAGAGCCACAUUAACGGCAGCAUAUCACAGUAGGAAUUCGACAGGAGGCUCACAACAGGC	binds
IL-4 2'NH2-B8 (ssRNA, 2'-NH2 C and U) RNA: GGGAGACAAGAAUAAACGCUCAAUGUGGGGAGCCACAGUUAACGGCUUCAACUGAUUAGAAUUCGACAGGAGGCUCACAACAGGC	binds
IL-4 2'NH2-B24 (ssRNA, 2'-NH2 C and U) RNA: GGGAGACAAGAAUAAACGCUCAAAGAUUUAAAGUAUUUGGGGAGCCACAUCAACGGCAUUGUGUUCGACAGGAGGCUCACAACAGGC	binds
IL-4 2'NH2-B29 (ssRNA, 2'-NH2 C and U) RNA: GGGAGACAAGAAUAAACGCUCAAUGACUGAACGAUGGUAUUGGAGAGCCACAUCAACGGCAAUUUCGACAGGAGGCUCACAACAGGC	binds
IL-4 2'NH2-22 (ssRNA, 2'-NH2 C and U) RNA: GGGAGACAAGAAUAAACGCUCAACAGAUGGUAUCUAGUGGAGAGCCACAUCAACGGCGCAGAUUCGACAGGAGGCUCACAACAGGC	binds
IL-4 2'NH2-B5 (ssRNA, 2'-NH2 C and U) RNA: GGGAGACAAGAAUAAACGCUCAACGAUAGUAUACACAUGAUGAUGGGGAGCCACGUGUACGGCUUCGACAGGAGGCUCACAACAGGC	binds
IL-4 2'NH2-B18 (ssRNA, 2'-NH2 C and U) RNA: GGGAGACAAGAAUAAACGCUCAACGAUGGAGCGCCACAUCGCUAUAACGGCAUUUAACAAAAUUUCGACAGGAGGCUCACAACAGGC	binds
IL-4 2'F/NH2-19 (ssRNA, 2'-F C, 2'-NH2 U) RNA: GGGAGACAAGAAUAAACGCUCAAGUCUUCCAUGGGGAGCCACAUUAACGGCGCAAUACUGAACUUCGACAGGAGGCUCACAACAGGC	binds
IL-4 2'F/NH2-13 (ssRNA, 2'-F C, 2'-NH2 U) RNA: GGGAGACAAGAAUAAACGCUCAACUCGGGAGCCAGAGUAACAACGGCACUAUAUAAUUUUACUUCGACAGGAGGCUCACAACAGGC	binds
IL-4 2'F/NH2-25 (ssRNA, 2'-F C, 2'-NH2 U) RNA: GGGAGACAAGAAUAAACGCUCAAAGAGCCGUUUUGGGGACCCACAGUAACGGGUUUAUGGUAUUCGACAGGAGGCUCACAACAGGC	binds
IL-4 2'F/NH2-8 (ssRNA, 2'-F C, 2'-NH2 U) RNA: GGGAGACAAGAAUAAACGCUCAAGUCGGAGCGAUGGAGAGCCACGAUAUACGGUCUGUGCGCUUCGACAGGAGGCUCACAACAGGC	binds
IL-4 2'F/NH2-41 (ssRNA, 2'-F C, 2'-NH2 U) RNA: GGGAGACAAGAAUAAACGCUCAAAGUAACGUGGGGAGCCACACGUAAUACGGCACUAAUUCGACAGGAGGCUCACAACAGGC	binds

target: IL-10 (Homo sapiens, UniProt P22301 P22301:19-178); experiment: filter; group statement, at 250 nM IL-10; details: tags: Bachem or R&D Systems; chain copies: 2
Sequence (P22301 19-178, one chain of several): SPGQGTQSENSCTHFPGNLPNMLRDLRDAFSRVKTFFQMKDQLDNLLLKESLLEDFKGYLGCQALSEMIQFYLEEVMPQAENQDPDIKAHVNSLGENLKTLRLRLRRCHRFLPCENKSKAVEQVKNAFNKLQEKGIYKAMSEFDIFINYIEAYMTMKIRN

Binder	binding result
IL-10 ligand 64 (ssRNA, 2'-F C and U) RNA: GGGAGACAAGAAUAAACGCUCAAACAUCGUAUAACUCUAAGCGCCUGGAUAUACGAUGAAUUCGACAGGAGGCUCACAACAGGC	binds
IL-10 ligand 64a (ssRNA, 2'-F C and U) RNA: GGGAGACAAGAAUAAACGCUCAAACAUCGUAUAACUCUAAGAGCCUGGAUAUACGAUGAAUUCGACAGGAGGCUCACAACAGGC	binds
IL-10 ligand 64b (ssRNA, 2'-F C and U) RNA: GGGAGACAAGAAUAAACGCUCAAACAUCGUAUAACUCUAAGUGCCUGGAUAUACGAUGAAUUCGACAGGAGGCUCACAACAGGC	binds
IL-10 ligand 55 (ssRNA, 2'-F C and U) RNA: GGGAGACAAGAAUAAACGCUCAAACAUCGUAUAAUCUCUAAGAGCCUGGAUAUACGAUGAAUUCGACAGGAGGCUCACAACAGGC	binds
IL-10 ligand 68 (ssRNA, 2'-F C and U) RNA: GGGAGACAAGAAUAAACGCUCAAACAUCGUAUAAUCUCUCUAAGAGCCUGGAAUACGAUGAAUUCGACAGGAGGCUCACAACAGGC	binds
IL-10 ligand 6 (ssRNA, 2'-F C and U) RNA: GGGAGACAAGAAUAAACGCUCAAAUCCCAAUCUCUAAGAGCCUGGAUAAGAAUGCGCAUUGGGCUUCGACAGGAGGCUCACAACAGGC	binds
IL-10 ligand 54 (ssRNA, 2'-F C and U) RNA: GGGAGACAAGAAUAAACGCUCAAAUCCCAAUCUCUAAGAGCCUGGAUGACAAUCGCAUUGGGCUUCGACAGGAGGCUCACAACAGGC	binds
IL-10 ligand 57 (ssRNA, 2'-F C and U) RNA: GGGAGACAAGAAUAAACGCUCAAAUCCCAAUCUCUAAGAGCCUGGAUGAGAAUGCGCAUUGGGCUUCGACAGGAGGCUCACAACAGGC	binds
IL-10 ligand 10 (ssRNA, 2'-F C and U) RNA: GGGAGACAAGAAUAAACGCUCAACUGAGAUCUCUAAGAGCCUGGACUCAGCUCCGACUGACCUUCGACAGGAGGCUCACAACAGGC	binds
IL-10 ligand 34 (ssRNA, 2'-F C and U) RNA: GGGAGACAAGAAUAAACGCUCAACUGAGAUCUCUAAGAGCCUGGACUCAGCUCCGAUUGAUCCUUCGACAGGAGGCUCACAACAGGC	binds
IL-10 ligand 41 (ssRNA, 2'-F C and U) RNA: GGGAGACAAGAAUAAACGCUCAACUGAGAUCUCUAAGAGCCUGGACUCAGCUCCGAUUGAACCUUCGACAGGAGGCUCACAACAGGC	binds
IL-10 ligand 15 (ssRNA, 2'-F C and U) RNA: GGGAGACAAGAAUAAACGCUCAAUCUCUAUGAGCCUGGAUCGACGAACUCUCUACGGGCUGUGUUCGACAGGAGGCUCACAACAGGC	binds
IL-10 ligand 56 (ssRNA, 2'-F C and U) RNA: GGGAGACAAGAAUAAACGCUCAAUCUCUAAGAGCCUGGAUGUCGAGGGGCCAUUUCGCACGCUUCGACAGGAGGCUCACAACAGGC	binds
IL-10 ligand 2 (ssRNA, 2'-F C and U) RNA: GGGAGACAAGAAUAAACGCUCAAAUCUCUACUGAGCCUGGAUUCGCCAGAAGUUUUAUCACAGUUUCGACAGGAGGCUCACAACAGGC	binds
IL-10 ligand 59 (ssRNA, 2'-F C and U) RNA: GGGAGACAAGAAUAAACGCUCAACGUAAAAGUUAUCGAAUCUCUGUGAGCCUGGAUCGAUUACUUCGACAGGAGGCUCACAACAGGC	binds
IL-10 ligand 3 (ssRNA, 2'-F C and U) RNA: GGGAGACAAGAAUAAACGCUCAACUGAGAUCUCUAAGAGCCUGGACUCAGCUACGAUUGAGCGUUUAUUCUUGUUCGACAGGAGGCUCACAACAGGC	binds

— patent US5972599, “High affinity nucleic acid ligands of cytokines” (NeXstar Pharmaceuticals, Inc.)
